Test results from patent US20040096942A1.

Assays:
[1] = biological target: GAL4DmEcR-DEF (yeast; fruit fly Drosophila melanogaster); experiment: cell-based or functional assay
[2] = biological target: GAL4CfEcR-DEF (yeast; spruce budworm Choristoneura fumiferana); experiment: cell-based or functional assay

VP16MmRXRα(1-7)-LmUSP(8-12)-EF
maximum fold induction of luciferase reporter, two-hybrid gene switch in NIH3T3 cells (fold induction) [1]: 1760 | maximum fold induction of luciferase reporter, two-hybrid gene switch in NIH3T3 cells (fold induction) [2]: 11000
